Test results as given in paper PMC10703879, “Antigen-induced chimeric antigen receptor multimerization amplifies on-tumor cytotoxicity” (Signal Transduction and Targeted Therapy, 2023).

B1: Nb1 (anti-BCMA nanobody 1 of the cilta-cel CAR) (VHH)
VHH: QVKLEESGGGLVQAGRSLRLSCAASEHTFSSHVMGWFRQAPGKERESVAVIGWRDISTSYADSVKGRFTISRDNAKKTLYLQMNSLKPEDTAVYYCAARRIDAADFDSWGQGTQVTVSS
notes: VHH from a phage display library of llamas immunized with BCMA; calculated Mw 13.9 kDa; source: provided by GenScript
B2: Nb2 (anti-BCMA nanobody 2 of the cilta-cel CAR) (VHH)
VHH: EVQLVESGGGLVQAGGSLRLSCAASGRTFTMGWFRQAPGKEREFVAAISLSPTLAYYAESVKGRFTISRDNAKNTVVLQMNSLKPEDTALYYCAADRKSVMSIRPDYWGQGTQVTVSS
notes: VHH from a phage display library of llamas immunized with BCMA; calculated Mw 13.6 kDa; source: provided by GenScript

How the values were obtained:
Conditions in all cases: both partners purified
[1] = biological target: T1, BCMAECD (synthesized extracellular domain of human B-cell maturation antigen, residues 1-54) (human, UniProt Q02223-1); test: SEC; nanobody-BCMAECD complexes (mixed 1:4, overnight at 4 °C, Superdex 75)
T1 construct: B-cell maturation antigen (BCMA), human, extracellular domain, residues 1-54 of UniProt Q02223-1; synthesized, without glycosylation; calculated Mw 5.9 kDa; also called BCMA extracellular domain; BCMA ectodomain; source: synthetic peptide (GL Biochem, Shanghai)

[2] = biological target: T1, BCMAECD (synthesized extracellular …); test: AUC; sedimentation velocity; complexes formed by mixing nanobody with excess BCMAECD (molar ratio 1:4, overnight at 4 °C); 1 mg/ml, 45,000 rpm, 20 mM Tris pH 8.0, 100 mM NaCl, 4 °C
[3] = biological target: T2, BCMAECD-Fc (dimerized, Fc-tagged human BCMA extracellular domain) (human, UniProt Q02223-1); test: SPR; Biacore 8K, 25 °C, 10 mM HEPES pH 7.4, 150 mM NaCl, 0.05% Tween 20; BCMAECD-Fc immobilised by amine coupling on CM5; nanobodies as analytes (five two-fold dilutions); Langmuir model for Nb1 and Nb2, heterogeneous ligand model for NbT
T2 construct: B-cell maturation antigen (BCMA), human, extracellular domain; also called Fc-tagged human BCMAECD

[4] = biological target: T3, BCMAECD-His (monomeric, His-tagged human BCMA extracellular domain) (Homo sapiens, UniProt Q02223-1); test: SPR; Biacore 8K, 25 °C, 10 mM HEPES pH 7.4, 150 mM NaCl, 0.05% Tween 20; BCMAECD-His immobilised by amine coupling on CM5; nanobodies as analytes (five two-fold dilutions); Langmuir model for Nb1 and Nb2, heterogeneous ligand model for NbT
T3 construct: B-cell maturation antigen (BCMA), human, extracellular domain; also called His-tagged human BCMAECD
T3 sequence (Q02223 1-54): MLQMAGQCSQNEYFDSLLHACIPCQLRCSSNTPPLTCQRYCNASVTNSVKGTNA

T1 sequence (Q02223 1-54): as above
T2 sequence (Q02223 1-54): as above

Binder | stoichiometry N [1] | stoichiometry N [2] | Kd [3] | Kd [4]
B1 | ~1 Nb1 per BCMAECD (printed 2:2) | 1 Nb1 per BCMAECD (printed 2:2) | 0.67 nM | 3.9 nM
B2 | ~1 Nb2 per BCMAECD (printed 1:1) | 1 Nb2 per BCMAECD (printed 1:1) | 3.7 nM | 4.2 nM
